Changes are numbered by the printed parent chain.

In patent publication US20230090487A1 (published 2023) one finds Kd data, which are given here for seven molecules.

Experiment [1] addresses T1, human IgE (myeloma IgE) (human, UniProt P01854-1 1-428).
T1 construct: Myeloma IgE coupled by amine coupling to a CM5 chip for Biacore; Also used to sensitize human FcεRIα-expressing 3D10 cells; also called PS IgE
The experiment in a line: binding affinity for human IgE; method not stated for the founders.

Experiment [2] concerns the target T1, human IgE (myeloma IgE). The experiment in a line: SPR, Biacore T2000, myeloma IgE amine-coupled to CM5 chip, antibody in solution. Here is the method:
(§1) The complementary determining region (CDR) sequences and the specificity-determining residues (SDR) of each heavy chain variable (VH) and light chain variable (VL) regions were engrafted into the framework (FR) regions of the most homologous human germline sequences. All the recombinant mAbs were transiently expressed in 293 cells in small scale (50 ml transfection volume) and purified by protein A affinity column for downstream application. The humanized mAbs not expressing or expressing <1 μg/ml recombinant antibody were eliminated. The affinity of humanized LAAIGE (hLAAIGE) to […] was determined by the surface plasmon resonance using Biacore T2000 instrument (Biacore AB, Uppsala, Sweden) with a CM5 sensor chip coupled with myeloma IgE by amine coupling. The purified hLAAIGEs were dissolved in HBS-EP assay buffer containing 0.15 M NaCl, 10 mM HEPES, pH 7.4, 3 mM EDTA, and 0.005% polysorbate 20. The solutions traversed the sensors at a flow rate of 50 μl/minute for binding analysis. Binding results were expressed in resonance units. Kinetic studies were analyzed with BIAevaluation Software Version 4.1. […] The binding of the selected hLAAIGE to the cell surface-bound IgE was confirmed using the human FcεRIα expressing 3D10 cells sensitized with myeloma IgE.
For orientation: SPR reads the build-up and loss of mass on a sensor chip optically.

The target in experiment [3] is T1, human IgE (myeloma IgE). The experiment in a line: SPR (Biacore method); range told of the group, this end tied to H6.2 by paragraph 147. As for the experimental part: as §1
The target of experiment [4] is T1, human IgE (myeloma IgE). The experiment in a line: SPR, Biacore T2000; range told of the chosen antibodies, this end tied to S91 by paragraph 147. Here is the method:
as §1

Experiment [5] addresses T1, human IgE (myeloma IgE). The experiment in a line: SPR (Biacore method); range told of the group, this end tied to E14 by paragraph 147. As for the experimental part:
as §1

T1 sequence (P01854 other isoform, or with tags, fused parts or gaps): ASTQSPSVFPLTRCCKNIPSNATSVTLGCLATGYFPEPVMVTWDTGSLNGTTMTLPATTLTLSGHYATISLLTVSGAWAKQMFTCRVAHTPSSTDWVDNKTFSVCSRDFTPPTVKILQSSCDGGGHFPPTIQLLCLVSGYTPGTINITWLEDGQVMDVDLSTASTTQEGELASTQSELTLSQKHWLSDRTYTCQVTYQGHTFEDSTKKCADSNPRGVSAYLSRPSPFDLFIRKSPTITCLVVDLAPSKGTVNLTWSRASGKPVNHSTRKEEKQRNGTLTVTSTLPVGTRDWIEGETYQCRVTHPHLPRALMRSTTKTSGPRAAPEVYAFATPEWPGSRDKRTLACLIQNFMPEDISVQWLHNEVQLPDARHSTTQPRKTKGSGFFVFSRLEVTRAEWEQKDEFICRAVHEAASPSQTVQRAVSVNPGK

B1: Founder P6.2 (low affinity anti-human IgE founder mouse mAb) (antibody, V domains shown)
VH: QVQLQQSGAELVRPGTSVKVSCKASGYAFTNYLIEWVKQRPGQGLEWIGVINPGSGFTKYNEKFKGKATLTADKSSSTAYMHLSSLTSDDSAVYFCAREDVYSWFAYWGQGTLVTVSA
VL: DIVLTQSPASLAVSLGQRATISCRASESVDSYGNSFMHWYQQKPGQPPKLLIYRTSNLESGIPARFSGSGSRTDFTLTINPVEADDVATYFCQQSYEDPFTFGSGTKLEIK
notes: Mouse hybridoma mAb
By Kd is commonly meant the concentration at which binding is half-saturated. For B1, the Kd in experiment [1] is ~2540 nM.

B2: hLAAIGE H6.2 (antibody, human IgG1, lambda, V domains shown)
VH: QVQLGQSGGGVVQPGRSLRLSCAASGFTFSNYLIEWVRQAPGKGLEWVAVINPGSGFTKYNEKFKQRFTISRDNSKNTLYLQMNSLRAEDTAVYYCAREDVYSWFAYWGQGTLVTVSA
VL: QSALTQPASVSGSPGQSITISCTRASESVDSYGNSFMHQHHPGKAPKLMIYEVRTSNLESSNRFSGSKSGNTASLTISGLQAEDEADYYCSSQQSYEDPFTFGSGTKLGQPK
notes: The entries are labelled 'VH' and 'VL' but are full heavy (human IgG1) and lambda light chains; Humanized, derived from Founder P6.2
Consider B2, for which the Kd is ~50000 nM in experiment [2] and 50000 nM in experiment [3].

B3: hLAAIGE S91 (antibody, human IgG1, lambda, V domains shown)
VH: QVQLVQSGAEVKKPGASVKVSCKASGYTFTSYGISWVRQAPGQGLEWMGWISAYNGNTNYAQKLQGRVTMTTDTSTSTAYMELRSLRSDDTAVYYCARVSSWPYWYFDLWGRGTLVTVSS
VL: QSAVTQPPSASGSPGQSVTISCTGTSSDVGAYDYVSWYQQHPGKAPKLMIYEVSKRPSGVPDRFSGSKSGNTASLTVSGLQAEDEADYYCSSYAGRVDVFGGGTKLTVLG
notes: The entries are labelled 'VH' and 'VL' but are full heavy (human IgG1) and lambda light chains; Humanized, derived from Founder F11
As to B3, the results for the Kd in experiment [4] and in experiment [2] were 7000 nM and 7410 nM, respectively.

B4: hLAAIGE E14 (antibody, human IgG1, kappa, V domains shown)
VH: QVQLVQSGSELKKPGASVKVSCKASGYTFTNYGMNWVRQAPGQGLEWMGWINTYTGEPTYADDFKGRFVFSLDTSVSTAYLQISSLKAEDTAVYYCARGAASHTMDYWGQGTTVTVSS
VL: DIVMTQSPDSLAVSLGERATINCRASQSVSTSAHSYMHWYQQKPGQPPKLLIYYASNLESGVPDRFSGSGSGTDFTLTISSLQAEDVAVYYCQHSWEIPWTFGQGTKLEIKR
notes: The entries are labelled 'VH' and 'VL' but are full heavy (human IgG1) and kappa light chains; Humanized, derived from Founder E17
B4: the Kd worked out at 70 nM in experiment [5] and 67.2 nM in experiment [2].

B5: hLAAIGE E17 (antibody, human IgG1, kappa, V domains shown)
VH: B4 VH
VL: B4 VL with A33S, S35A
notes: Humanized clone E17, a different molecule from the mouse Founder E17; The entries are labelled 'VH' and 'VL' but are full heavy (human IgG1) and kappa light chains
For the molecule B5, binding in experiment [2] was put at a Kd of 140 nM.

B6: hLAAIGE E23 (antibody, human IgG1, kappa, V domains shown)
VH: B4 VH
VL: B4 VL with A33S, H34Y, E59K, S60A
notes: as for B4
As for B6, binding in experiment [2] was put at a Kd of 109 nM.

B7: hLAAIGE E59 (antibody, human IgG1, kappa, V domains shown)
VH: B4 VH
VL: B4 VL with A33S
notes: Humanized, derived from Founder E17; Expressed in 293 cells
The molecule B7 yielded an equilibrium dissociation constant (Kd) in experiment [2] of 164 nM. This Kd is about 1.5-fold higher than that of the molecule before.
